The values that follow come from patent US20130252307A1.

The target in data set [1] is (I27G32C-A75C)8 polypeptide (UniProt Q8WZ42).
The target in data set [2] is (I27G32C-A75C)8 polypeptide, Q8WZ42.
For data set [3], the target named is (I27G32C-A75C)8 polypeptide (UniProt Q8WZ42). The data set can be described thus: given as k10 (k10=δ0); three-state kinetic model fitted to force-dependent disulfide reduction rates, single-molecule AFM force-clamp, pH 7.2; not a direct binding assay.
Data set [4] shares this target. The data set is described as follows: given as α0 (k01=α0[Trx]); three-state kinetic model fitted to force-dependent disulfide reduction rates, single-molecule AFM force-clamp, pH 7.2; not a direct binding assay.

Take Trx from Sulfolobus tokodaii: in data set [1], the “rate of disulfide reduction at pH 5” value is recorded as “does not show detectable activity at pH 5” and the “rate of disulfide reduction at pH 7, 50 pN” value is “active at pH 7 (0.12×10^5 M^-1 s^-1 at 50 pN)”.

In the case of Trx from Acetobacter aceti, the “rate of disulfide reduction at pH 5, 100 pN” value in data set [1] was “active at pH 5 (0.6×10^5 M^-1 s^-1 at 100 pN)”.

B1: last common ancestor of γ-proteobacteria (LGPCA) Trx (protein)
chain: MSIIHVTDDSFDQDVLKADKPVLVDFWAEWCGPCKMIAPILDEIAEEYEGKLKVAKVNIDENPETAAKYGIRGIPTLMLFKNGEVAATKVGALSKSQLKEFLDANL
Consider B1, for which, in data set [2], the “staircases of single reduction events (AFM force-clamp)” value (“staircases of single reduction events” for short) is “All the ancestral enzymes resurrected using the methods described herein were able to trigger staircases of reduction events”, the Δx02 (Å) was found to be 0.17 Å, the Δx12 (Å) is -0.83 Å and the β0 (s-^1) amounted to 34 s⁻¹. Moreover, in data set [2], the γ0 stood at 0.012 µM⁻¹ s⁻¹ and the λ0 was found to be 0.35 s⁻¹. The molecule further had a koff in data set [3] of 3.8 s⁻¹. In data set [4], this molecule had a kon of 480000 M⁻¹ s⁻¹.

B2: wild type human Trx enzyme (protein)
chain: VKQIESKTAFQEALDAAGDKLVVVDFSATWCGPCKMIKPFFHSLSEKYSNVIFLEVDVDDCQDVASECEVKCMPTFQFFKKGQKVGEFSGANKEKLEATINELV
Consider B2, for which, in data set [2], the “rate of reduction at pH 5, fold lower than LBCA” value is “modern E. coli and human thioredoxin show ˜20 fold lower rates at this pH”; the “reoxidation of substrate disulfide bonds during refolding (step sizes in the probe pulse)” value is given as “none of the refolded domains formed a disulfide bond, indicating that the wild type form of thioredoxin does not catalyze reoxidation”.

B3: C35S human thioredoxin mutant (hTrx^C35S) (protein)
chain: VKQIESKTAFQEALDAAGDKLVVVDFSATWCGPSKMIKPFFHSLSEKYSNVIFLEVDVDDCQDVASECEVKCMPTFQFFKKGQKVGEFSGANKEKLEATINELV
B3: the “reoxidation of substrate disulfide bonds during refolding (step sizes in the probe pulse)” value in data set [2] was “the step sizes during the probe pulse are now entirely composed of 11 and 14 nm steps, indicating the full reoxidation of all the disulfide bonds”.

B4: last bacterial common ancestor (LBCA) Trx (protein)
chain: MSVIEINDENFEEEVLKSDKPVLVDFWAPWCGPCRMIAPIIEELAEEYEGKVKFAKVNVDENPETAAKYGIMSIPTLLLFKNGEVVDKLVGARPKEALKERIEKHL
Regarding B4, in data set [2], the “rate of catalysis at pH 5” value was “showed a high rate of catalysis at pH 5, where extant enzymes are largely inactive”; the “reduction rates at pH 5” value is listed as “the reduction rates observed at pH 5 are strikingly similar to those measured at pH 7.2”; the “staircases of single reduction events” value is “All the ancestral enzymes resurrected using the methods described herein were able to trigger staircases of reduction events”; the Δx02 (Å) was determined as 0.19 Å. Moreover, in data set [2], the Δx12 (Å) was -0.74 Å, the β0 (s-^1) came out at 30 s⁻¹, the γ0 was 0.004 µM⁻¹ s⁻¹ and the λ0 was 0.09 s⁻¹. This molecule yielded a koff in data set [3] of 5.8 s⁻¹. Further, the kon in data set [4] was found to be 470000 M⁻¹ s⁻¹.

B5: last common ancestor of cyanobacterial and deinococcus/thermus groups (LPBCA) Trx (protein)
chain: MSVIEVTDENFEQEVLKSDKPVLVDFWAPWCGPCRMIAPIIEELAKEYEGKVKVVKVNVDENPNTAAQYGIRSIPTLLLFKNGQVVDRLVGAQPKEALKERIDKHL
Consider B5, for which, in data set [2], the “staircases of single reduction events” value is “All the ancestral enzymes resurrected using the methods described herein were able to trigger staircases of reduction events”, the Δx02 (Å) was 0.17 Å, the Δx12 (Å) was -0.71 Å and the β0 (s-^1) was found to be 30 s⁻¹. Further, in data set [2], the γ0 was 0.017 µM⁻¹ s⁻¹ and the λ0 stood at 0.19 s⁻¹. This molecule also showed an off-rate (koff) in data set [3] of 4.9 s⁻¹. In data set [4], this molecule yielded a kon of 470000 M⁻¹ s⁻¹.

B6: archaeal/eukaryotic common ancestor (AECA) Trx (protein)
chain: MSVIEINDENFDEVIKKSDKVVVVDFWAEWCGPCRMIAPIIEELAEEYAGKVVFGKVNVDENPEIAAKYGIMSIPTLLFFKNGKVVDQLVGARPKEALKERIKKYL
As to B6, in data set [2], the “rate constant of disulfide bond reduction extrapolated to zero force (pH 7.2)” value is listed as 30×10^5 M^-1 s^-1 for AECA Trx, the “reduction rate constant at pH 5 extrapolated to zero force” value is 19×10^5 M^-1 s^-1, the “staircases of single reduction events” value is on record as “All the ancestral enzymes resurrected using the methods described herein were able to trigger staircases of reduction events” and the Δx02 (Å) is 0.19 Å. In addition, in data set [2], the Δx12 (Å) is -0.84 Å, the β0 (s-^1) is 25 s⁻¹, the γ0 was found to be 0.019 µM⁻¹ s⁻¹ and the λ0 was found to be 0.21 s⁻¹.

B7: last archaeal common ancestor (LACA) Trx (protein)
chain: MSVVQLNDENFDEVIKKNNKVVVVDFWAEWCGPCRMIAPIIEELAKEYAGKVVFGKLNVDENPETAAKYGIMSIPTLLFFKNGKVVDQLVGAMPKEALKERIKKYL
As to B7, in data set [2], the “rate constant of disulfide bond reduction extrapolated to zero force (pH 7.2)” value is given as 29×10^5 M^-1 s^-1 for LACA Trx, the “reduction rate constant at pH 5 extrapolated to zero force” value is listed as 6.2×10^5 M^-1 s^-1, the “staircases of single reduction events” value is “All the ancestral enzymes resurrected using the methods described herein were able to trigger staircases of reduction events” and the Δx12 (Å) is -0.76 Å. In data set [2], the β0 (s-^1) stood at 43 s⁻¹ and the λ0 is 0.38 s⁻¹.

B8: last common ancestor of animals and fungi (LAFCA) Trx (protein)
chain: MVIQVTNKDEFESILSEADKLVVVDFTATWCGPCKMIAPKFEELSEEYPDNVVFLKVDVDEVEDVAAEYGISAMPTFQFFKNGKKVDELTGANQEKLKAMIKKHAA
With B8, in data set [2], the “staircases of single reduction events” value was “All the ancestral enzymes resurrected using the methods described herein were able to trigger staircases of reduction events”, the Δx12 (Å) is -0.74 Å, the β0 (s-^1) stood at 37 s⁻¹ and the λ0 came to 0.06 s⁻¹. In addition, the koff in data set [3] amounted to 4.6 s⁻¹. In addition, the kon in data set [4] came to 810000 M⁻¹ s⁻¹.

B9: last eukaryotic common ancestor (LECA) Trx (protein)
chain: MVIQVTNKEEFEAILSEADKLVVVDFFATWCGPCKMIAPFFEELSEEYPDKVVFIKVDVDEVPDVAAKYGITSMPTFKFFKNGKKVDELVGANQEKLKQMILKHAP
Turning to B9, in data set [2], the “staircases of single reduction events” value is given as “All the ancestral enzymes resurrected using the methods described herein were able to trigger staircases of reduction events”, the Δx12 (Å) was -0.8 Å, the β0 (s-^1) is 38 s⁻¹ and the λ0 worked out at 0.18 s⁻¹. Also, the koff in data set [3] is 4.2 s⁻¹. For the same molecule, the kon in data set [4] was determined as 760000 M⁻¹ s⁻¹.
